Read-outs that look alike come from different tables or passages of the source. One block for each binder: values may come before it.
Assays:
[1] = target: T1, Human IL-2Rβ/γ (intermediate affinity IL-2 receptor) (human, UniProt P14784 27-551; P31785 23-369); experiment: FACS, HH cells
T1 construct: whole, on cells; also called IL-2Rβ/γc; IL-2Rβ (CD122) and γ (CD132)
T1 sequence (looked up) 1: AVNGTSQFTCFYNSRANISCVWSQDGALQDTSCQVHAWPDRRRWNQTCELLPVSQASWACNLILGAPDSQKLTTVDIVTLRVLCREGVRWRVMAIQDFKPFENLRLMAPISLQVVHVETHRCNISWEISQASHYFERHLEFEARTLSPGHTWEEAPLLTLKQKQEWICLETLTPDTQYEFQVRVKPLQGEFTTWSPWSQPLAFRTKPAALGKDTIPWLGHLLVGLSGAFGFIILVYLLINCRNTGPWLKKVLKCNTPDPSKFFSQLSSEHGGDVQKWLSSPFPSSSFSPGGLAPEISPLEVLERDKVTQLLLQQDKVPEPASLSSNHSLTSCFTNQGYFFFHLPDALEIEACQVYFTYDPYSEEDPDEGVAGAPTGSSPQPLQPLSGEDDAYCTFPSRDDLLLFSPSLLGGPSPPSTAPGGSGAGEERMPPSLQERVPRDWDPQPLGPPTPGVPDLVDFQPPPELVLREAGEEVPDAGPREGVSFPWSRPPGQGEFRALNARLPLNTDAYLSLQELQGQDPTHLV
T1 sequence (looked up) 2: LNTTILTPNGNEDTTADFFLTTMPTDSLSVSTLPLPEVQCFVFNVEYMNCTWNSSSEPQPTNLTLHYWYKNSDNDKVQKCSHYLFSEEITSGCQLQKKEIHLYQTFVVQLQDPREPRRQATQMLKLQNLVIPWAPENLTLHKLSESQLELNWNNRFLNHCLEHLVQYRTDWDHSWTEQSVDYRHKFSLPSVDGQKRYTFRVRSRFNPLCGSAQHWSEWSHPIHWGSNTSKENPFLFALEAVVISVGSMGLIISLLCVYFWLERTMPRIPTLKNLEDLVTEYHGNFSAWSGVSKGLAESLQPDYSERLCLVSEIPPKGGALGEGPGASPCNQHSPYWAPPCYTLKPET
Outline: (§1)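 Surface binding of IL-2/Fc fusion proteins at 4° C. (30 min, no internalization) on lymphoma lines HH (CD122/CD132 only), NK92 and MJ20 (plus CD25); secondary PE-anti-human Fc; MFI by FACS.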

[2] = target: T2, W369-hPro2.ECD.His, IL2Rβ ECD (human, UniProt P14784 27-239); experiment: SPR Biacore 8K; set-up for IL-2Rβ not described
T2 construct: Entry includes linker and C-terminal 6xHis tag; also called CD122
T2 sequence: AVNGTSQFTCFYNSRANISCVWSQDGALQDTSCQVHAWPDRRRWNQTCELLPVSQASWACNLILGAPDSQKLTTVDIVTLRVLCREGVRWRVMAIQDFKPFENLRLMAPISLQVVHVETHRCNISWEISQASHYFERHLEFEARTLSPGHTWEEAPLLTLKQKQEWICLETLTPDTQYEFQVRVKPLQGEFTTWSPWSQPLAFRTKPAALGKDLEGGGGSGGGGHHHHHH

[3] = target: T1, Human IL-2Rβ/γ (intermediate affinity …); experiment: FACS, HH cells; EC50 fold vs T2U0.E44-1
Outline: as §1

[4] = target: T1, Human IL-2Rβ/γ (intermediate affinity …); experiment: cell-based or functional assay
[5] = target: T3, Human IL-2Rα/β/γ complex (high affinity IL-2 receptor) (human, UniProt P01589 22-272; P14784 27-551; P31785 23-369); experiment: cell-based or functional assay
T3 sequence (looked up) 1: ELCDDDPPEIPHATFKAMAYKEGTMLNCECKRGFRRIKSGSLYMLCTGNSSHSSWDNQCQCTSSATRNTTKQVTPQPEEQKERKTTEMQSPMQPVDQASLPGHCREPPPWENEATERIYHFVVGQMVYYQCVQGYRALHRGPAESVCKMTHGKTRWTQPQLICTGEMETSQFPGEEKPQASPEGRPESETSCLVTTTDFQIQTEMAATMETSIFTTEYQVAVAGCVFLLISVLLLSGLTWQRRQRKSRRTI
T3 sequence (looked up) 2: T1 sequence (looked up) 1
T3 sequence (looked up) 3: T1 sequence (looked up) 2

[6] = target: T4, W3XX115-hPro1.ECD.His, IL2Rα ECD (Homo sapiens (Human), UniProt P01589 22-213); experiment: SPR Biacore 8K; variant captured via anti-human Fc, IL-2Rα ECD-His injected; steady state
T4 construct: Entry includes the C-terminal 6xHis tag; also called CD25
T4 sequence: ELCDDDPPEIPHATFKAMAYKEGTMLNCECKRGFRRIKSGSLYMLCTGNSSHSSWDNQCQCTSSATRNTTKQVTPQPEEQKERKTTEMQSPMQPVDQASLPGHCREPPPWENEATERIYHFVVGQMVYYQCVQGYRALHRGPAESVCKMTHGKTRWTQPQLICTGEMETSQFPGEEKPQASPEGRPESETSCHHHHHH
Procedure: (§2) IL-2 variants binding affinity to IL-2 receptor were detected by SPR using Biacore 8K. For IL-2Rα binding assay, each variant was captured on anti-human Fc immobilized CM5 sensor chip (cytiva). W3XX115-hPro1.ECD.His at different concentrations were injected over the sensor chip at a flow rate of 30 uL/min for an association phase of 60 s, followed by 90 s dissociation. The chip was then regenerated by 10 mM Glycine-HCl pH1.5 after each binding cycle. For IL-2Rγ binding assay, IL-2 variants were mixed with W369-hPro2.ECD.His as 1:1 before assay, were detected by SPR using Biacore 8K. W3XX115-hPro1.ECD.His was captured on anti-His immobilized CM5 sensor chip (cytiva). The mixture were injected over the sensor chip as described above. The sensorgrams of blank surface and buffer channel were subtracted from the test sensorgrams. The experimental data was fitted by steady state affinity model. Molecular weight of W3XX115-hPro1.ECD.His or W369-hPro1.ECD.His was used to calculate the molar concentration of analyte.
(§3) For T3U0.E44-1 and T2U0.E44-33, no binding to IL-2Rα was detected.

[7] = target: T3, Human IL-2Rα/β/γ complex (high affinity …); experiment: FACS, MJ20 cells; EC50 fold vs T2U0.E44-1
Procedure: (§4) Human cutaneous T cell lymphoma HH cells, malignant non-Hodgkin's lymphoma NK92 cells and cutaneous T cell lymphoma MJ20 cells were used for binding assay. They both constitutively express IL-2Rβ (CD122) and […] (CD132), and NK92 and MJ20 also expresses IL-2Rα (CD25). HH, NK92 and MJ20 cells were cultured following ATCC guidance, then transferred to a 96-plate for binding analysis. Cells were incubated with IL-2/Fc fusion proteins at the indicated concentrations for 30 min at 4° C. to avoid internalization. Binding was detected by 2nd antibody of PE-anti-human Fc at 4° C. for another 30 min. The median fluorescence intensity (MFI) on HH and NK92 cells was measured using FACS.
Mutations of F42 or R38 were involved in T2U0.E44-26 to generate IL-2 variants.

[8] = target: T4, W3XX115-hPro1.ECD.His, IL2Rα ECD; experiment: SPR Biacore 8K
Procedure: as §2, §3

[9] = target: T3, Human IL-2Rα/β/γ complex (high affinity …); experiment: FACS, MJ20 cells
Procedure: as §4

[10] = target: T1, Human IL-2Rβ/γ (intermediate affinity …); experiment: FACS, HH cells; remark: listed apart in the source
Procedure: as §4
(§5) IL-2 variants of T2U0.E44-6 and T2U0.E44-26 were used to construct bivalent variants W3XX115-T2.Z20-1.uIgG4V322 and W3XX115-T2.Z20-2.uIgG4V322 respectively.

[11] = target: T5, W369-hPro1.ECD.His, IL-2Rγ ECD (human, UniProt P31785 23-254); experiment: SPR Biacore 8K; variant pre-mixed 1:1 with IL-2Rβ ECD-His, injected over captured IL-2Rγ ECD-His
T5 construct: Entry includes linker and C-terminal 6xHis tag; also called IL-2Rγc; CD132
T5 sequence: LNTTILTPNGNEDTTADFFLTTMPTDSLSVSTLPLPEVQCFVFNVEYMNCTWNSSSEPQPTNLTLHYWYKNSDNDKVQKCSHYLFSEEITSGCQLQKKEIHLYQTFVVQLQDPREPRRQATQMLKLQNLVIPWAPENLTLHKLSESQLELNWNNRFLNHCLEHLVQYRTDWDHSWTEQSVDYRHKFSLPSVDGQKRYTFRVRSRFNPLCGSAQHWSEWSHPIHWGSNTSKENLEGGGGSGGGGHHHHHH
Procedure: as §2, §3

[12] = target: T1, Human IL-2Rβ/γ (intermediate affinity …); experiment: cell-based or functional assay; remark: listed apart in the source
[13] = target: T1, Human IL-2Rβ/γ (intermediate affinity …); experiment: FACS, HH cells; EC50 fold vs T2U0.E44-1; remark: listed apart in the source
Procedure: as §4, §5

[14] = target: T4, W3XX115-hPro1.ECD.His, IL2Rα ECD; experiment: SPR Biacore 8K; variant captured on anti-human Fc chip, IL-2Rα ECD-His injected
Procedure: as §2, §3

- EC50 [1]: 760 nM
- Kd [2]: 5870 nM
- Affinity reduction [3]: 15 fold
- Human CD8+ T Potency EC50 (STAT5 phosphorylation) [4]: 149 nM
- Human CD8+ T Potency reduction [4]: 41 fold
- Human Treg Potency EC50 (STAT5 phosphorylation) [5]: 0.42 nM
- Human Treg Potency reduction [5]: 302 fold
- Kd [6]: 1030 nM
- Affinity reduction [7]: 13.7 fold
- fold affinity reduction compared to T2U0.E44-1 [8]: ~10 fold
- EC50 [9]: 627 nM
B1: W3XX115-T2U0.E44-33.uIgG4V322 (Fc fusion)
chain: APTSSSTKKTQLQLEHLLLDLQMILNGINNYKNPKLTWMLTFKFYMPKKATELKHLQCLEEELKPLEEVLNLAQSKNFHLRPRDLISNINVIVLELKGSETTFMCEYADETATIVEFLNRWITFCQSILESKYGPPCPPCPAPEAAGGPSVFLFPPKPKDTLMISRTPEVTCVVVDVSQEDPEVQFNWYVDGVEVHNAKTKPREEQFNSTYRVVSVLTVLHQDWLNGKEYKCKVSNKGLPSSIEKTISKAKGQPREPQVYTLPPCQEEMTKNQVSLWCLVKGFYPSDIAVEWESNGQPENNYKTTPPVLDSDGSFFLYSRLTVDKSRWQEGNVFSCSVMHEALHNHYTQKSLSLSLG
heavy: EIQLQQSGPELVKPGASVKVSCKASGYSFTDYNMYWVKQSHGESLEWIGYIDPYNGGTRYNQKFKGKATLTVDKSSSTAFMHLNSLTSEDSAVYYCARNGHWDGAWFAYWGQGTLVTVSAASTKGPSVFPLAPCSRSTSESTAALGCLVKDYFPEPVTVSWNSGALTSGVHTFPAVLQSSGLYSLSSVVTVPSSSLGTKTYTCNVDHKPSNTKVDKRVESKYGPPCPPCPAPEAAGGPSVFLFPPKPKDTLMISRTPEVTCVVVDVSQEDPEVQFNWYVDGVEVHNAKTKPREEQFNSTYRVVSVLTVLHQDWLNGKEYKCKVSNKGLPSSIEKTISKAKGQPREPQVCTLPPSQEEMTKNQVSLSCAVKGFYPSDIAVEWESNGQPENNYKTTPPVLDSDGSFFLVSRLTVDKSRWQEGNVFSCSVMHEALHNHYTQKSLSLSLG
light: DIQMNQSPSSLSASLGDTITITCHASQNINVWLSWYQQKPGNIPKLLIYKASNLHTGVPSRFSGSRSGTGFTLTISSLQPEDIATYYCHQGQSYPFTFGSGTKLEIKRTVAAPSVFIFPPSDEQLKSGTASVVCLLNNFYPREAKVQWKVDNALQSGNSQESVTEQDSKDSTYSLSSTLTLSKADYEKHKVYACEVTHQGLSSPVTKSFNRGEC

- EC50 [10]: 29.3 nM
- EC50 [1]: 64.1 nM
- binding result [11]: binds
- Potency EC50, STAT5 phosphorylation in CD8+ T (column headed Human Treg) [12]: 11.7 nM
- Potency reduction, CD8+ T (column headed Human Treg) [12]: 1 fold
- Kd [2]: 2260 nM
- Affinity reduction [13]: 0.9 fold
- Affinity reduction [3]: 1.3 fold
- Human CD8+ T Potency EC50 (STAT5 phosphorylation) [4]: 7.87 nM
- Human CD8+ T Potency reduction [4]: 2.2 fold
- binding result [14]: no binding
B2: W3XX115-T3U0.E44-1.uIgG4V322 (Fc fusion)
chain: APTSSSTKKTQLQLEHLLLDLQMILNGINNYKNPKLTRMLTAKFAMPKKATELKHLQCLEEELKPLEEVLNGAQSKNFHLRPRDLISNINVIVLELKGSETTFMCEYADETATIVEFLNRWITFCQSIISTLTESKYGPPCPPCPAPEAAGGPSVFLFPPKPKDTLMISRTPEVTCVVVDVSQEDPEVQFNWYVDGVEVHNAKTKPREEQFNSTYRVVSVLTVLHQDWLNGKEYKCKVSNKGLPSSIEKTISKAKGQPREPQVYTLPPCQEEMTKNQVSLWCLVKGFYPSDIAVEWESNGQPENNYKTTPPVLDSDGSFFLYSRLTVDKSRWQEGNVFSCSVMHEALHNHYTQKSLSLSLG
heavy: B1 heavy
light: B1 light
notes: E44 format, IgG4 FALA; also called non-α IL-2
